± gives the uncertainty stated by the source.

The nature of the data set: amyloid nucleation score (Sup35N fusion, yeast selection) (log enrichment); library NNK3; higher = more nucleation; inactive = no reads after selection. In short, it runs like this: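 Three technical output replicates were used for random libraries. Psi-negative yeast expressing peptides of 20 random codons fused to Sup35N were induced with 100 μM copper sulfate for 24 hours and grown 7 days at 30°C on medium lacking adenine and uracil, and input and output plasmid inserts were Illumina-sequenced, excluding sequences with under 100 input reads. The nucleation score is the DiMSum log enrichment of output over input reads, centred on the mode score of non-aggregating sequences.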
Take RSTSSENYFYWFKS: the amyloid nucleation score entry is “inactive”. The same measure for YLFLVRSQTLRVRYWTRNPP: “inactive”. For AIRPKSGAWSHLCYASIG the value was “inactive”. Regarding WGFVWRVFLLKMC, the amyloid nucleation score entry is “inactive”.

In the case of WDYKAGISSSLSAIGCLYGD, the amyloid nucleation score result was “inactive”.

As to GPGNMAMNVRAVKSGYHIAG, the amyloid nucleation score result is “inactive”. Substance VIYRSYLRIDSFIGRGGLII showed an amyloid nucleation score of 0.567 ± 0.26. As for GGNLFSSVS, the amyloid nucleation score entry is “inactive”. For VYSLFKVELISILGRMKITK, the amyloid nucleation score result was “inactive”. As for TNLSSSFLTQLRVILMSFLG, the amyloid nucleation score came out at 0.798 ± 0.2. Turning to KDSYMSCYKPRYVLPRRIIQ, the amyloid nucleation score result was “inactive”.

Turning to AWHCLDYYRSGSVIDRRVGM, the amyloid nucleation score entry is “inactive”. Take HVAIPTGLSKSNSQLYS: the amyloid nucleation score result was “inactive”. As to RMRSWMGCGRHCLWRHLEEL, the amyloid nucleation score entry was “inactive”. With MVLCSKGIVNSARLAFKKSR, the amyloid nucleation score result was “inactive”. As for IDTISMG, the amyloid nucleation score entry was “inactive”. Regarding LELRYCLFADPMI, the amyloid nucleation score result is “inactive”. Consider SFNFCLFASLSALCMTRVEF, for which the amyloid nucleation score entry was “inactive”. The same measure for SNANKCGRMFEMKYRHNLCL: “inactive”; for PDTLRRNRVSRFTFAKRCGL: -0.769 ± 0.98; for RCKIENVIYM: 2.44 ± 0.058.

As for WTSHALKISPLNICNQLEHV, the amyloid nucleation score is -0.09 ± 0.77.

As for VRVILNAGLKNGRKVLNLGR, the amyloid nucleation score entry is “inactive”. For RYSVYGLNICFL the value was 2.45 ± 0.083; for YSCGFDLAAWAFTDVIRRRI, “inactive”; for YNAYLKENLILLYLCRSSRE, 2.17 ± 0.063. As to YRPWHDIRTICCSTSSSTIE, the amyloid nucleation score worked out at 2.5 ± 0.063. Take TAFTGIRTWHCHCKRSYSLG: the amyloid nucleation score result was “inactive”.

In the case of YYLVSWYVTTVLKSGLLSVR, the amyloid nucleation score entry is “inactive”.

For the substance FSCDHLGWLVVSVCSGLRWL, the amyloid nucleation score entry is “inactive”. For KYQLPRDNFS the value was “inactive”; for CIFFRVGSFLNYFYASAWHS, “inactive”; for LYFRLPNASAVDIIEIGFPV, 0.039 ± 0.55.

TVNQKPY: the amyloid nucleation score entry was “inactive”. As for DRNSYVMCYPWGVVWCNHKS, the amyloid nucleation score is 1.03 ± 0.14. In the case of VSLGVNRGG, the amyloid nucleation score entry is “inactive”.

Regarding DKNNLIFFLRAVCYFSSERT, the amyloid nucleation score was 1.08 ± 0.11. Consider VYNGSFWRVNLVNF, for which the amyloid nucleation score came out at 1.09 ± 0.095.

Consider RGMFTFNYMNWGKDLLRPRL, for which the amyloid nucleation score entry is “inactive”. FLCWIYDECKGVRCVRLGAI: the amyloid nucleation score entry is “inactive”. Consider HEGCSMSGRIPLLSRYMGYG, for which the amyloid nucleation score result was “inactive”. For RRMNISRGSCVELWFRFQWP the value was 0.163 ± 0.43. As to YLVVHW, the amyloid nucleation score entry is “inactive”.

For the substance VLMISCTS, the amyloid nucleation score entry is “inactive”. Consider SAQNYTL, for which the amyloid nucleation score entry is “inactive”. In the case of GDTAPNSSTISLTVFFPLFA, the amyloid nucleation score came out at 0.697 ± 0.21. Turning to VDLYV, the amyloid nucleation score entry is “inactive”.

Regarding GTRLRVGILIPRWDSGTFGF, the amyloid nucleation score entry is “inactive”. For the substance GVSSCFWSSFEQKFMKLSSV, the amyloid nucleation score result was “inactive”. Consider YDLGIGNKHVRYLWGPARKK, for which the amyloid nucleation score entry was “inactive”. As for RKSDFVIVSCYQRFGNRELN, the amyloid nucleation score result is “inactive”.

In turn, INLGMP came in with an amyloid nucleation score of -0.279 ± 0.52. Consider HKLVFEHRLLVGPRNVDIFL, for which the amyloid nucleation score entry was “inactive”. As for NVQQALIHVSAHGCRFFLTC, the amyloid nucleation score is 2.71 ± 0.065. For the substance KCLKCKTGLCTMQGEYNRSY, the amyloid nucleation score is -0.475 ± 0.88. Consider SSYLGECVKRPDPPRISKTL, for which the amyloid nucleation score entry is “inactive”. For the substance ESVRRMLLTLGAHWGSPIHF, the amyloid nucleation score entry is “inactive”. On to FKDMFPNLSTCLLIVRM, for which the amyloid nucleation score result was “inactive”. Turning to SLDCARNFRFGQTVFCCVGY, the amyloid nucleation score was 1.21 ± 0.18. In the case of SKTGLDMADMIKRGDCGEST, the amyloid nucleation score result was “inactive”. For RNFARCRFNPPMTHHSFFNT the value was “inactive”; for SYANIWVIHKLDGFMESSLL, “inactive”. On to HYTVDANNIVFYILH, for which the amyloid nucleation score stood at 3.11 ± 0.076. For the substance DRVGRRLIGLRLAQLLGERF, the amyloid nucleation score entry was “inactive”. In the case of FDSDRCIMCLTHLWILWGLR, the amyloid nucleation score result was “inactive”. As for ESVGLISWFRVPIYSN, the amyloid nucleation score result is “inactive”.

Consider SNYSV, for which the amyloid nucleation score result is “inactive”. Take VITVIFVSYYCIPVWYW: the amyloid nucleation score turned out to be 1.81 ± 0.099. For SHCVSTT, the amyloid nucleation score result is “inactive”. The same measure for SLYWSAMRKYNVVRTIYSRW: “inactive”; for VEGRCPLNH: “inactive”; for GEDVGPCMTESCRYAYLRYT: “inactive”. As for HMLLVD, the amyloid nucleation score entry is “inactive”. The same measure for ILPSYDLFEVVWLVRAD: “inactive”. For the substance YIIFVNKLSSPYFVT, the amyloid nucleation score turned out to be 1.06 ± 0.19. On to FLGIDAPDWSMVSKAIGRMG, for which the amyloid nucleation score entry is “inactive”. The same measure for VFCLVYKKCLKSYCQYMVIG: “inactive”; for YILSTLAFFGDRNYDMVLGC: “inactive”; for NLADAVEENGGYFHFTFPKF: “inactive”. FTAQRGSTCHPYVRKHEYI: the amyloid nucleation score entry was “inactive”. Turning to IGTDWRARAMAALYI, the amyloid nucleation score entry was “inactive”.

With SFCGLYVKFSVGYVVLIWGS, the amyloid nucleation score result is “inactive”. The same measure for CKTIKVVLAALGFCYPQYSL: “inactive”; for KYLGG: “inactive”; for DLHVLSVK: “inactive”. The same measure for CMPHG: “inactive”. Consider QCKHSPGWAWRNSTNHCIAS, for which the amyloid nucleation score entry is “inactive”.

For KGLFWEGYGMMLRLRWWMMV, the amyloid nucleation score entry is “inactive”. For CVYGKYLFLVIPEDEPTLYV the value was 0.439 ± 0.31; for DVARPCSI, “inactive”; for DCRWVCKFYPPVFNVIVEKV, “inactive”. SMSSTSYIGSSLVMIARNKF: the amyloid nucleation score entry is “inactive”. For EVCWVSEWQLIVMRFSCTWL, the amyloid nucleation score result is “inactive”. For FGLITYFLL the value was 1 ± 0.13; for VMGDSVRIAELQIWAEINGL, 1.07 ± 0.14; for IVVNR, “inactive”. Take LSGPMRYELCMRLGSGLNYE: the amyloid nucleation score entry was “inactive”. Consider KMACTCAESTVIIS, for which the amyloid nucleation score entry is “inactive”. Turning to YWLMKALQIWHSENRFRYIE, the amyloid nucleation score entry is “inactive”. As to SALPVTSCFFTTMCGTVIID, the amyloid nucleation score result was “inactive”. The same measure for TFYVLRPTYSITRNGAPRPL: “inactive”; for CFVGHADLKFMGFHWMVGEC: “inactive”. Take MTCTTCACDDICSNKLVLFH: the amyloid nucleation score entry was “inactive”.

For DGRSIEFIDGCDVYSICSRE, the amyloid nucleation score result was “inactive”. With ILIGPSGFMYLDVSFFQFQR, the amyloid nucleation score is 0.856 ± 0.25. The same measure for YLLSMSENMRLALIECVAV: “inactive”.

Consider SSYVQFYLGWLGRYCNGSYV, for which the amyloid nucleation score entry was “inactive”. VRYSPDRKFGETCIKQAVMT: the amyloid nucleation score result was “inactive”. On to SKLCELLSLQTAVAYMMSGA, for which the amyloid nucleation score result was “inactive”. For YLVQNFKT the value was -0.401 ± 0.6; for GKGCYLVVCDYTTCTKFLNM, “inactive”; for GLVYNNIWISLYFNGATVES, 2.08 ± 0.06. Take LCLFGLLYNIETFSIVVDYS: the amyloid nucleation score result is “inactive”.

In the case of LSNLRGYNH, the amyloid nucleation score entry was “inactive”. Regarding VFHRQERMLTPCT, the amyloid nucleation score entry is “inactive”.

As for SRPLEMVLLLSWWIMSRKIP, the amyloid nucleation score entry was “inactive”. For TNINSYGLKIESGGWNQLN the value was “inactive”; for GMRSSLNIDAFGSGAELMHW, “inactive”; for MWVMGNDS, “inactive”.

For the substance MRDMIINMVSGETNGLCVKP, the amyloid nucleation score entry is “inactive”. Turning to VNWHNIKVTEDVKVG, the amyloid nucleation score result is “inactive”. For VTFIRQGLEIVSVVLSICKE the value was “inactive”; for SIFLGLRSRQLSFISLLEDG, “inactive”; for SMCDMYYLVACTPHMIVQLY, -0.111 ± 0.69. MMSTTKSRDNSIKDQLSGSS: the amyloid nucleation score entry was “inactive”. In the case of GGWSARYTNCNLYYTEASGP, the amyloid nucleation score is 0.857 ± 0.18. GSYYWGGIGFTSEI returned an amyloid nucleation score of 0.846 ± 0.14. Take QPPAKSMWFSFDMLS: the amyloid nucleation score entry is “inactive”.

For the substance MNFMLTLFLWGM, the amyloid nucleation score result is “inactive”.

Consider RILLNANRYTMPSGVYDHRA, for which the amyloid nucleation score result was “inactive”. Take SWPSASSFDSR: the amyloid nucleation score entry was “inactive”.

The record behind these values is the supplement of paper PMC12042874.
